Measurements as given in patent US20230263863A1, “COMPOSITIONS HAVING NEUROREGENERATIVE APPLICATIONS” (GRIFOLS WORLDWIDE OPERATIONS LIMITED, priority 2020, published 2023).

Tested on: SH-SY5Y cells
Experiment: Neurite outgrowth (Outgrowth Fold Change) in undifferentiated SH-SY5Y cells
Assay type: cell-based, human
Conditions: for neurogenesis / differentiation (neurite outgrowth): all proteins 0.2 mg/mL
Description: Undifferentiated SH-SY5Y cells were seeded into 96 well clear bottom plates in media containing 0.1% FBS. A serum-free base media was utilized as recommended by the supplier for SH-SY5Y cells (Sigma, Cat #94030304-1VL). Twenty-four hours after seeding cells, a 3× stock solution of ApoTf, final concentrations indicated on the x-axis, in serum free base media was added to the cells. ApoTf was obtained and purified from pooled human plasma and dosed at a final concentration of 0.2 mg/mL. Cells were allowed to differentiate for 6 days. Neurite growth was assessed by imaging and image analysis. At the time of analysis, a 10× solution of Tubulin Tracker (Molecular Probes, T34075) and Hoechst 33342 (Molecular Probes #H3570) nuclear stain was prepared.
Briefly, Tubulin Tracker dissolved in DMSO was diluted 1:1 with Pluronic F-127 and further diluted into HBSS to generate a 10× solution. Hoechst 33342 was added to the HBSS-Tubulin Tracker solution at 10 μg/mL to generate a 10× nuclear stain. The 10× staining solution (10 μL) was added directly to treated assay wells and incubated at 37° C. for 30 minutes. Following incubation, 110 μL of 0.4% Trypan Blue was added directly to assay wells and imaged on a Molecular Devices Nano imaging instrument. Nine images/well were acquired in the blue (Nuclei) and green (Tubulin) fluorescent channels for each image.
After obtaining images, the MetaExpress Neurite Outgrowth analysis module (Molecular Devices) was used to identify cells, cell bodies, and quantify neurites. The total number of neurite branches were divided by the total number of cells imaged to account for different numbers of cells in each test well. The Outgrowth Fold Change was determined by setting the untreated control cells to a value of 1 with all other treatments shown relative to untreated control.

B1: apo-lactoferrin: structural and functional homologue of apo-transferrin, from Athens Research & Technology (protein, UniProt P02788 20-710, looked up)
Lactotransferrin: GRRRSVQWCAVSQPEATKCFQWQRNMRKVRGPPVSCIKRDSPIQCIQAIAENRADAVTLDGGFIYEAGLAPYKLRPVAAEVYGTERQPRTHYYAVAVVKKGGSFQLNELQGLKSCHTGLRRTAGWNVPIGTLRPFLNWTGPPEPIEAAVARFFSASCVPGADKGQFPNLCRLCAGTGENKCAFSSQEPYFSYSGAFKCLRDGAGDVAFIRESTVFEDLSDEAERDEYELLCPDNTRKPVDKFKDCHLARVPSHAVVARSVNGKEDAIWNLLRQAQEKFGKDKSPKFQLFGSPSGQKDLLFKDSAIGFSRVPPRIDSGLYLGSGYFTAIQNLRKSEEEVAARRARVVWCAVGEQELRKCNQWSGLSEGSVTCSSASTTEDCIALVLKGEADAMSLDGGYVYTAGKCGLVPVLAENYKSQQSSDPDPNCVDRPVEGYLAVAVVRRSDTSLTWNSVKGKKSCHTAVDRTAGWNIPMGLLFNQTGSCKFDEYFSQSCAPGSDPRSNLCALCIGDEQGENKCVPNSNERYYGYTGAFRCLAENAGDVAFVKDVTVLQNTDGNNNEAWAKDLKLADFALLCLDGKRKPVTEARSCHLAMAPNHAVVSRMDKVERLKQVLLHQQAKFGRNGSDCPDKFCLFQSETKNLLFNDNTECLARLHGKTTYEKYLGPQYVAGITNLKKCSTSPLLEACEFLRK
modifications: apo form
notes: structural and functional homologue of apo-transferrin, from Athens Research & Technology
B1 was tested, and the “neurogenesis / differentiation (neurite outgrowth)” value (FIG. 4) was “induced differentiation”.

B2: BDNF: brain-derived neurotrophic factor; NGF superfamily; SEQ ID NO: 6 (protein, listed as Homo sapiens)
chain: MFHQVRRVMTILFLTMVISYFGCMKAAPMKEANIRGQGGLAYPGVRTHGTLESVNGPKAGSRGLTSLADTFEHVIEELLDEDQKVRPNEENNKDADLYTSRVMLSSQVPLEPPLLFLLEEYKNYLDAANMSMRVRRHSDPARRGELSVCDSISEWVTAADKKTAVDMSGGTVTVLEKVPVSKGQLKQYFYETKCNPMGYTKEGCRGIDKRHWNSQCRTTQSYVRALTMDSKKRIGWRFIRIDTSCVCTLTIKRGR
B2 was tested, and the “differentiation (neurite outgrowth), factor alone” value (FIGS. 7A-7D, absence of ApoTf, BDNF 25 ng/mL, GDNF 1000 ng/mL, CNTF 250 ng/mL, PACAP 200 nM) was “differentiation was not induced”.

B3: N-mut rec ApoTf: Y95F/Y188F transferrin N-lobe mutant protein, SEQ ID NO: 4, reduced iron-binding capacity (protein)
chain: VPDKTVRWCAVSEHEATKCQSFRDHMKSVIPSDGPSVACVKKASYLDCIRAIAANEADAVTLDAGLVYDAYLAPNNLKPVVAEFYGSKEDPQTFFYAVAVVKKDSGFQMNQLRGKKSCHTGLGRSAGWNIPIGLLYCDLPEPRKPLEKAVANFFSGSCAPCADGTDFPQLCQLCPGCGCSTLNQYFGFSGAFKCLKDGAGDVAFVKHSTIFENLANKADRDQYELLCLDNTRKPVDEYKDCHLAQVPSHTVVARSMGGKEDLIWELLNQAQEHFGKDKSKEFQLFSSPHGKDLLFKDSAHGFLKVPPRMDAKMYLGYEYVTAIRNLREGTCPEAPTDECKPVKWCALSHHERLKCDEWSVNSVGKIECVSAETTEDCIAKIMNGEADAMSLDGGFVYIAGKCGLVPVLAENYNKSDNCEDTPEAGYFAVAVVKKSASDLTWDNLKGKKSCHTAVGRTAGWNIPMGLLYNKINHCRFDEFFSEGCAPGSKKDSSLCKLCMGSGLNLCEPNNKEGYYGYTGAFRCLVEKGDVAFVKHQTVPQNTGGKNPDPWAKNLNEKDYELLCLDGTRKPVEEYANCHLARAPNHAVVTRKDKEACVHKILRQQQHLFGSNVTDCSGNFCLFRSETKDLLFRDDTVCLAKLHDRNTYEKYLGEEYVKAVGNLRKCSTSSLLEACTFRRP
modifications: Y95F/Y188F mutant
For B3, the “neurogenesis / differentiation (neurite outgrowth)” value (FIG. 3B) was “almost equal to that of ApoTf and rec ApoTf at inducing differentiation”.
